Results as given in US20220119517A1 (NANJING SANHOME PHARMACEUTICAL, published 2022).
Residue numbers refer to the chain shown, from its start. Like-named read-outs stand apart in the source and are kept apart here.

B1: 305CHI (antibody, human IgG1, V domains shown)
VH: EVKLVESGGGLVQPGGSLKLSCAASGFTFSDYGMAWVRQAPRKGPEWVAFISNLAYSIYYADTVTGRFTISRENAKNTLYLEMSSLRSEDTAMYYCARLGYGNSFAYWGQGTLVTVSA
VL: DIVMTQSPSSLTVTAGEKVTMSCKSSQSLLNSGNQKNYLTWYQQKPGQPPKLLIYWASTRESGVPDRFTGSGSGTDFTLTISSVQAEDLAVYYCQNELFYPLTFGAGTKLELK
notes: chimeric with the constant region of human IgG1
B2: 307CHI (antibody, V domains shown)
VH: B1 VH with T28G, L54S
VL: B1 VL with E97N, L98Y, F99Y
notes: as for B1
B3: 319CHI (antibody, V domains shown)
VH: B1 VH with T28G, L54S, Y101R
VL: B1 VL with E97N, L98Y, F99Y
notes: as for B1
B4: Hu330-2 (antibody, V domains shown)
VH: EVQLVESGGGLVQPGGSLRLSCAASGFGFSDYGMAWVRQAPGKGLEWVSFISNSAYSIYYADTVTGRFTISRDNAKNSLYLQMNSLRAEDTAVYYCARLGRGNSFAYWGQGTLVTVSS
VL: EIVMTQSPPTLSLSPGERVTLSCKSSQSLLNSGNQKNYLTWYQQKPGQAPRLLIYWGSTRESSIPARFSGSGSGTDFTLTISSLQPEDLAVYYCQNELFYPLTFGQGTKLEIK
B5: 5M (antibody, human IgG1, kappa)
heavy: QVQLQQPGAELVRPGASVKLSCKASGYTFTSYWINWVKQRPGQGLEWIGNIYPSDSYTNYNQKFKDKATLTVDKSSSTAYMQLSSPTSEDSAVYYCTRSWRGNSFDYWGQGTTLTVSSASTKGPSVFPLAPSSKSTSGGTAALGCLVKDYFPEPVTVSWNSGALTSGVHTFPAVLQSSGLYSLSSVVTVPSSSLGTQTYICNVNHKPSNTKVDKKVEPKSCDKTHTCPPCPAPELLGGPSVFLLPPKPKDTLMISRTPEVTCVVVDVSHEDPEVKFNWYVDGVEVHNAKTKPPEEQYNSTLRVVSILTVLHQDWLNGKEYKCKVSNKALPAPIEKTISKAKGQPREPQVYTLPPSRDELTKNQVSLTCLVKGFYPSDIAVEWESNGQPENNYKTTPLVLDSDGSFFLYSKLTVDKSRWQQGNVFSCSVMHEALHNHYTQKSLSLSPGK
light: DIVMTQSPSSLTVTAGEKVTMSCKSSQSLLNSGNQKNYLTWYQQKPGQPPKLLIYWASTRESGVPDRFTGSGSGTDFTLTISSVQAEDLAVYYCQNDYSYPFTFGSGTKLEIKRTVAAPSVFIFPPSDEQLKSGTASVVCLLNNFYPREAKVQWKVDNALQSGNSQESVTEQDSKDSTYSLSSTLTLSKADYEKHKVYACEVTHQGLSSPVTKSFNRGEC
B6: 301CHI (antibody, V domains shown)
VH: B1 VH
VL: B1 VL with E97N, L98Y, F99Y
notes: as for B1
B7: 302CHI (antibody, V domains shown)
VH: B1 VH
VL: B1 VL with E97D, L98Y, F99S, Y100L, L102F
notes: as for B1
B8: 303CHI (antibody, V domains shown)
VH: B1 VH with D31R, R42G, L54S
VL: B1 VL with A57G, E97D, L98Y, F99S
notes: as for B1
B9: 304CHI (antibody, V domains shown)
VH: B1 VH with T28G, L54S
VL: B1 VL with S62P, E97D, L98Y, F99S
notes: as for B1
B10: 306CHI (antibody, V domains shown)
VH: B1 VH with Y101R
VL: B1 VL with E97D, L98Y, F99S, Y100F
notes: as for B1
B11: 308CHI (antibody, V domains shown)
VH: B1 VH with T28G, L54S
VL: B1 VL with E97D, L98Y, F99S, Y100L, L102F
notes: as for B1
B12: 309CHI (antibody, human IgG1, V domains shown)
VH: B1 VH with T28G, L54S
VL: B1 VL
notes: as for B1
B13: 312CHI (antibody, human IgG1, V domains shown)
VH: B1 VH with D31R, R42G, L54S
VL: B1 VL
notes: as for B1
B14: 313CHI (antibody, V domains shown)
VH: B1 VH with Y101R
VL: B1 VL with E97N, L98Y, F99Y
notes: as for B1
B15: 315CHI (antibody, human IgG1, V domains shown)
VH: B1 VH with Y101R
VL: B1 VL
notes: as for B1
B16: 321CHI (antibody, human IgG1, V domains shown)
VH: B1 VH with T28G, L54S, Y101R
VL: B1 VL
notes: as for B1
B17: 322CHI (antibody, human IgG1, V domains shown)
VH: B1 VH
VL: B1 VL with A57G, E97N, L98Y, F99Y
notes: as for B1
B18: 324CHI (antibody, human IgG1, V domains shown)
VH: B1 VH
VL: B1 VL with A57G
notes: as for B1
B19: 328CHI (antibody, human IgG1, V domains shown)
VH: B1 VH with T28G, L54S, Y101R
VL: B1 VL with A57G, E97N, L98Y, F99Y
notes: as for B1

What was measured:
[1] = molecular target: T1, human Claudin18.2 (CLDN18.2), full length, on cells (human); experiment: cell-based or functional assay
[2] = molecular target: T2, antigen protein Claudin18.2-His (human, UniProt P56856-2 1-261, limits assumed); experiment: BLI (Fortebio Octet RED96), antibody on AHC sensor, Claudin18.2-His in solution, 37 °C
T2 construct: also called CLDN18.2 protein
Method: Next, antibodies were immobilized by the AHC sensor, and then combined with different concentrations of antigens, and determination of the affinity was performed according to the manual of Octet RED96.

[3] = molecular target: T1, human Claudin18.2 (CLDN18.2), full …; experiment: FACS on NUGC4 cells
Excerpt: (§1) Human gastric cancer cells NUGC4 and stably transfected cells CHO-K1-CLDN18.1 (prepared in Example 5) were used respectively, to verify the specificity and affinity of the anti-CLDN18.2 antibodies above at the cellular level by FAGS technology. After antibody affinity maturation and screening in vitro, each antibody can bind to the CLDN18.2 target on NUGC4 cells, but not to CHO-K1-CLDN18.1 cells, as compared with the original 3CHI antibody.

[4] = molecular target: T3, human Claudin18.1 (CLDN18.1), full length, on cells (human, UniProt P56856 1-261); experiment: cellular ELISA
T3 construct: HEK293-CLDN18.1 cells carry a fusion with green fluorescent protein (ZsGreen); CHO-K1-CLDN18.1 cells carry pcDNA3.1-CLDN18.1; The cell line is named under assay; also called CLDN18.1-FL; HEK293-CLDN18.1 cells

[5] = molecular target: T3, human Claudin18.1 (CLDN18.1), full …; experiment: FACS on CHO-K1-CLDN18.1 cells
Excerpt: as §1

[6] = molecular target: T1, human Claudin18.2 (CLDN18.2), full …; experiment: cellular ELISA
[7] = molecular target: T1, human Claudin18.2 (CLDN18.2), full …; experiment: cell-based or functional assay; remark: listed apart in the source
[8] = molecular target: T1, human Claudin18.2 (CLDN18.2), full …; experiment: cell-based or functional assay; remark: listed apart in the source

Row | MFI (CLDN18.2) [3] | binding result [4] | MFI (CLDN18.1) [5] | binding result [6] | other results | Binder
1 | 38900 MFI | no binding | 68 MFI | – | in-vitro ADCC activity, Jurkat-CD16A/NF luciferase reporter, EC50 [1]: 0.28 nM; in-vitro ADCC activity, Jurkat-CD16A/NF luciferase reporter, Top [1]: 216000; Kd [2]: 0.865 nM; koff [2]: 4.44e-05 s⁻¹; kon [2]: 51300 M⁻¹ s⁻¹ | B1
2 | – | no binding | – | binds | – | B2
3 | – | no binding | – | binds | – | B3
4 | – | – | – | – | ADCC activity by luciferase labeling, EC50 [7]: 0.11 nM; ADCC activity by luciferase labeling, Top [7]: 65100 | B4
5 | – | – | – | – | ADCC activity by luciferase labeling, EC50 [8]: 0.44 nM; ADCC activity by luciferase labeling, Top [8]: 98400 | B5
6 | 44400 MFI | no binding | 114 MFI | – | – | B6
7 | – | no binding | – | binds | – | B7
8 | 38200 MFI | no binding | 85 MFI | – | – | B8
9 | – | no binding | – | binds | – | B9
10 | – | no binding | – | binds | – | B10
11 | – | no binding | – | binds | – | B11
12 | 42500 MFI | no binding | 78 MFI | – | – | B12
13 | – | no binding | – | binds | – | B13
14 | – | no binding | – | binds | – | B14
15 | 42300 MFI | no binding | 65 MFI | – | – | B15
16 | 46300 MFI | no binding | 299 MFI | – | – | B16
17 | 44800 MFI | no binding | 57 MFI | – | – | B17
18 | 36000 MFI | no binding | 248 MFI | – | – | B18
19 | – | no binding | – | binds | – | B19
